Earlier results in patent US20200069786A1, “COMPOSITION AND PROCESS FOR PREPARING VACCINE” (TREOS BIO ZRT., priority 2018, published 2020).
Read-outs that look alike come from different tables or passages of the source.

B1: LEMD1 (protein, UniProt Q68G75 1-181, looked up)
LEM domain-containing protein …: MVDVKCLSDCKLQNQLEKLGFSPGPILPSTRKLYEKKLVQLLVSPPCAPPVMNGPRELDGAQDSDDSEELNIILQGNIILSTEKSKKLKKWPEASTTKRKAVDTYCLDYKPSKGRRWAARAPSTRITYGTITKERDYCAEDQTIESWREEGFPVGLKLAVLGIFIIVVFVYLTVENKSLFG
B2: COX6B2 (protein, UniProt Q6YFQ2 1-88, looked up)
Cytochrome c oxidase subunit …: MLDVEAQEPPKGKWSTPPFDPRFPSQNQIRNCYQNFLDYHRCLKTRTRRGKSTQPCEYYFRVYHSLCPISWVESWNEQIKNGIFAGKI
B3: NLRP4 (protein, UniProt Q96MN2 1-994, looked up)
NACHT, LRR and PYD …: MAASFFSDFGLMWYLEELKKEEFRKFKEHLKQMTLQLELKQIPWTEVKKASREELANLLIKHYEEQQAWNITLRIFQKMDRKDLCMKVMRERTGYTKTYQAHAKQKFSRLWSSKSVTEIHLYFEEEVKQEECDHLDRLFAPKEAGKQPRTVIIQGPQGIGKTTLLMKLMMAWSDNKIFRDRFLYTFYFCCRELRELPPTSLADLISREWPDPAAPITEIVSQPERLLFVIDSFEELQGGLNEPDSDLCGDLMEKRPVQVLLSSLLRKKMLPEASLLIAIKPVCPKELRDQVTISEIYQPRGFNESDRLVYFCCFFKDPKRAMEAFNLVRESEQLFSICQIPLLCWILCTSLKQEMQKGKDLALTCQSTTSVYSSFVFNLFTPEGAEGPTPQTQHQLKALCSLAAEGMWTDTFEFCEDDLRRNGVVDADIPALLGTKILLKYGERESSYVFLHVCIQEFCAALFYLLKSHLDHPHPAVRCVQELLVANFEKARRAHWIFLGCFLTGLLNKKEQEKLDAFFGFQLSQEIKQQIHQCLKSLGERGNPQGQVDSLAIFYCLFEMQDPAFVKQAVNLLQEANFHIIDNVDLVVSAYCLKYCSSLRKLCFSVQNVFKKEDEHSSTSDYSLICWHHICSVLTTSGHLRELQVQDSTLSESTFVTWCNQLRHPSCRLQKLGINNVSFSGQSVLLFEVLFYQPDLKYLSFTLTKLSRDDIRSLCDALNYPAGNVKELALVNCHLSPIDCEVLAGLLTNNKKLTYLNVSCNQLDTGVPLLCEALCSPDTVLVYLMLAFCHLSEQCCEYISEMLLRNKSVRYLDLSANVLKDEGLKTLCEALKHPDCCLDSLCLVKCFITAAGCEDLASALISNQNLKILQIGCNEIGDVGVQLLCRALTHTDCRLEILGLEECGLTSTCCKDLASVLTCSKTLQQLNLTLNTLDHTGVVVLCEALRHPECALQVLGLRKTDFDEETQALLTAEEERNPNLTITDDCDTITRVEI
B4: SPAG6 (protein, UniProt O75602 1-509, looked up)
Sperm-associated antigen 6: MSQRQVLQVFEQYQKARTQFVQMVAELATRPQNIETLQNAGVMSLLRTLLLDVVPTIQQTAALALGRLANYNDDLAEAVVKCDILPQLVYSLAEQNRFYKKAAAFVLRAVGKHSPQLAQAIVDCGALDTLVICLEDFDPGVKEAAAWALRYIARHNAELSQAVVDAGAVPLLVLCIQEPEIALKRIAASALSDIAKHSPELAQTVVDAGAVAHLAQMILNPDAKLKHQILSALSQVSKHSVDLAEMVVEAEIFPVVLTCLKDKDEYVKKNASTLIREIAKHTPELSQLVVNAGGVAAVIDCIGSCKGNTRLPGIMMLGYVAAHSENLAMAVIISKGVPQLSVCLSEEPEDHIKAAAAWALGQIGRHTPEHARAVAVTNTLPVLLSLYMSTESSEDLQVKSKKAIKNILQKCTYLPALEPFLYDAPPNILKHVVGQFSKVLPHDSKARRLFVTSGGLKKVQEIKAEPGSLLQEYINSINSCYPEEIVRYYSPGYSDTLLQRVDSYQPLNN
B5: THEG (protein, UniProt Q9P2T0 1-379, looked up)
Sperm microtubule associated …: MGDSRRRSLGNQPSSEAAGRSEREQDGDPRGLQSSVYESRRVTDPERQDLDNAELGPEDPEEELPPEEVAGEEFPETLDPKEALSELERVLDKDLEEDIPEISRLSISQKLPSTTMTKARKRRRRRRLMELAEPKINWQVLKDRKGRCGKGYAWISPCKMSLHFCLCWPSVYWTERFLEDTTLTITVPAVSRRVEELSRPKRFYLEYYNNNRTTPVWPIPRSSLEYRASSRLKELAAPKIRDNFWSMPMSEVSQVSRAAQMAVPSSRILQLSKPKAPATLLEEWDPVPKPKPHVSDHNRLLHLARPKAQSDKCVPDRDPRWEVLDVTKKVVASPRIISLAKPKVRKGLNEGYDRRPLASMSLPPPKASPEKCDQPRPGL

System: TSA

Molecule	TSA Expression Rate (ER) (BREAST) [%]	Expression Rate (ER) % (TSA expression rate in CRC) [%]	Expression Rate (ER) % (TSA expression rate in PROSTATE cancer) [%]	TSA Expression Rate (ER) (LUNG) [%]
B1	35	94	23	
B2				24
B3				38
B4	21			29
B5				31
